Experimental findings from article PMC5937170 are described below.

Holding throughout (details): EMSA: 15 ul, 70 C for 15 min, buffer per Ochs et al. 2012 (not given), 8% native PAGE; footprint: same binding conditions, DNase I at 37 C
In general terms: A gel shift assay detects complexes by their altered migration in electrophoresis.

For series [1], the target named is T1, TFB-RF1 (Pyrococcus furiosus) (UniProt Q8U1W6).
T1 sequence: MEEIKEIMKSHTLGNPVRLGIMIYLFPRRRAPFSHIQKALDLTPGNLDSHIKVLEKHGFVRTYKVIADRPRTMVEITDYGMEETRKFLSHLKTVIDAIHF
Nature of the series: EMSA.

The target in series [2] is T2, TFB-RF1;TBP;TFB (Pyrococcus furiosus;Pyrococcus furiosus?;Pyrococcus furiosus?) (UniProt Q8U1W6+P62000+P61998).
T2 sequence 1: T1 sequence
T2 sequence 2: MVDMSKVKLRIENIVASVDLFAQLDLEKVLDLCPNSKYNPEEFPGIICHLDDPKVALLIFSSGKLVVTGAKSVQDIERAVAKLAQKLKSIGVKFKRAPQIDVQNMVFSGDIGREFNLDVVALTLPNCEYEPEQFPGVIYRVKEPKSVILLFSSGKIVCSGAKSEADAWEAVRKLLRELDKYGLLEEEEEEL
T2 sequence 3: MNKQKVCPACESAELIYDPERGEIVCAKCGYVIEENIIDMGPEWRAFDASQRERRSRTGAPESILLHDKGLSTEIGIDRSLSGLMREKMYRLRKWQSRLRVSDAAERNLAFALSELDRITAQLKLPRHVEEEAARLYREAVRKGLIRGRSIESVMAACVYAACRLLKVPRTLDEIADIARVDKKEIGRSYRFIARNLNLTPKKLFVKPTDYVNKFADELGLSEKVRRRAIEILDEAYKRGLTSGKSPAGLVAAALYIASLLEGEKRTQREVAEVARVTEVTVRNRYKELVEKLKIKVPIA
Nature of the series: EMSA.

Series [3] concerns the target T1, TFB-RF1 (Pyrococcus furiosus). Nature of the series: DNase I footprinting.

Turning to “ACTATTTTGGAAATTAGTTAAAGCTTCTAAAAAAGCTTGTTGTTTTTCTGGGATTCAGACGGATTATTTACAAAAAAGGAAAGGAATATTGGTAGCTATA (double strand) [pf1011/1012 promoter region (EMSA)]”, the binding entry in series [1] and in series [2] was “binds” throughout.
For “ACTATTTTGGAAATTAGTTAAAGCTTCTAAAAAAGCTTGTTGTTTTTCTGGGATTCAGACGGATTATTTACAAAAAAGGAAAGGAATATTGGTAGCTATA (double strand) [pf1011/1012 promoter region (footprint)]”, the binding result in series [3] was “binds”.
